# Test results published in publication PMC7035113.
# pKd: −log10 of the molar value.
# Molecular target: SA2-SCC1 complex (SA2 80-1060 in complex with SCC1 281-420) (UniProt Q8N3U4)
# Assay: ITC
# Chain of SA2-SCC1 complex (SA2 80-1060 in complex with SCC1 281-420) (Q8N3U4 80-1060, chain 1 of 2): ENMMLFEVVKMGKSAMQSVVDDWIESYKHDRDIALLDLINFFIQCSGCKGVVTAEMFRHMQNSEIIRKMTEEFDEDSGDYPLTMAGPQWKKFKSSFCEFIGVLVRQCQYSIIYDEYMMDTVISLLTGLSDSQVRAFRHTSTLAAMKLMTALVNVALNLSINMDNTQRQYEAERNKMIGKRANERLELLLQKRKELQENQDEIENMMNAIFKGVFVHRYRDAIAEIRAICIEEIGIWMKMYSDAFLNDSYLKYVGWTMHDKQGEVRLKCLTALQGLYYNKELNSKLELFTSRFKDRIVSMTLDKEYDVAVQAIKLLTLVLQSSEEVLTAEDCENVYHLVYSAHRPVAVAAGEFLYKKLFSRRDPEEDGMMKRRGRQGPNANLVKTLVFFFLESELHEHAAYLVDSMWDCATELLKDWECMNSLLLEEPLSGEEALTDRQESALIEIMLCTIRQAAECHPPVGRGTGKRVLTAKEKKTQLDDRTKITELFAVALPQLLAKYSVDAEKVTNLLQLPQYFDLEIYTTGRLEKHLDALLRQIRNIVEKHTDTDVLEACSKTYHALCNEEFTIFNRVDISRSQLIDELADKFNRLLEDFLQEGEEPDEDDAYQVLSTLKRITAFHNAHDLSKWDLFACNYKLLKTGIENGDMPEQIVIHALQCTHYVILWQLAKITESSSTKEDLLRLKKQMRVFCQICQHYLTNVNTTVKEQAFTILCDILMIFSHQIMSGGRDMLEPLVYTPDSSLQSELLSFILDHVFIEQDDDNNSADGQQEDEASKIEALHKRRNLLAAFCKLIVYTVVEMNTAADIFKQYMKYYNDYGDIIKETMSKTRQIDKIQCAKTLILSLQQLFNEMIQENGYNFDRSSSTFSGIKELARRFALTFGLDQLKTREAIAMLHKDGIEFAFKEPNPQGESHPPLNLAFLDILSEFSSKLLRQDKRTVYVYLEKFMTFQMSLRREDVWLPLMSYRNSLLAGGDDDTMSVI
# Chain of SA2-SCC1 complex (SA2 80-1060 in complex with SCC1 281-420) (O60216 281-420, chain 2 of 2, further chain): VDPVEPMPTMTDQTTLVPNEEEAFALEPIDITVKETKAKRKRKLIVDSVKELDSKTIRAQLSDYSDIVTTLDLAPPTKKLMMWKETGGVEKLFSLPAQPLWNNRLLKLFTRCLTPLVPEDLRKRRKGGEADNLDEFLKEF
substance,measurement,value
Shugoshin (SGO1) peptide 331-341 (from UniProt Q5FBB7 331-341),pKd,4.87
same,dH,-10.7 kcal/mol
